Results as given in publication PMC4749977, “Alp7/TACC-Alp14/TOG generates long-lived, fast-growing MTs by an unconventional mechanism” (Scientific Reports, 2016).

Experiments:
[1] = biological target: T1, Alp7-14 complex (full length Alp14 mixed with full length Alp7) (S. pombe, UniProt O94534 1-809; Q9URY2 1-474, biotin on the AviTag (BirA ligase co-expressed to ensure biotinylation)); test: glycerol gradient centrifugation; 5-40% glycerol gradient of purified Alp14, Alp7 and tubulin, alone or mixed; tubulin as GTP-tubulin where stated; fractions on SDS-PAGE with Coomassie staining; conditions: both partners purified
T1 construct: Alp14 of S. pombe, full length, as the chain of m1; Alp7 of S. pombe, full length, as the chain of m2; also called Alp7/TACC-Alp14/TOG; source: each from Sf9 insect cells (baculovirus), purified, then mixed
T1 sequence (looked up) 1: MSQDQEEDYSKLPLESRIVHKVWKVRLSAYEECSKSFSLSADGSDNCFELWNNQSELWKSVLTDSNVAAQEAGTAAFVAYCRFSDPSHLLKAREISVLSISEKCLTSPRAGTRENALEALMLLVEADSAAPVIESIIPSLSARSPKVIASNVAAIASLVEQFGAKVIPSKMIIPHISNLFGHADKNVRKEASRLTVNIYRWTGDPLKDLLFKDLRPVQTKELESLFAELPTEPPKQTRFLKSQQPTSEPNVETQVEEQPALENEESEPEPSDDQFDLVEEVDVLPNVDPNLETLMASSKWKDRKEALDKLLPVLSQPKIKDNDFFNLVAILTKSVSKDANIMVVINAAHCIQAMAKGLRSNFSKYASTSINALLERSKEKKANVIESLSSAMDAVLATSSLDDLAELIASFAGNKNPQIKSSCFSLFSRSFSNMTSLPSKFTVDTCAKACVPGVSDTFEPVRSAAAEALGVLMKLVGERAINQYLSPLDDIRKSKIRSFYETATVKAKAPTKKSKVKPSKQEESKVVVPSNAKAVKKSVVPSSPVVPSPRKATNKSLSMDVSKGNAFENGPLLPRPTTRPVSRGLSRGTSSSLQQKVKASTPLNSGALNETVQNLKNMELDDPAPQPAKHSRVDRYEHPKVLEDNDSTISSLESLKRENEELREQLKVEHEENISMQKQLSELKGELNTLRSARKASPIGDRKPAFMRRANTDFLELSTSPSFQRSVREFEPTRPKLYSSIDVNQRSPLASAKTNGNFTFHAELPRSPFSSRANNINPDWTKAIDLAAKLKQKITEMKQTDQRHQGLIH
T1 sequence (looked up) 2: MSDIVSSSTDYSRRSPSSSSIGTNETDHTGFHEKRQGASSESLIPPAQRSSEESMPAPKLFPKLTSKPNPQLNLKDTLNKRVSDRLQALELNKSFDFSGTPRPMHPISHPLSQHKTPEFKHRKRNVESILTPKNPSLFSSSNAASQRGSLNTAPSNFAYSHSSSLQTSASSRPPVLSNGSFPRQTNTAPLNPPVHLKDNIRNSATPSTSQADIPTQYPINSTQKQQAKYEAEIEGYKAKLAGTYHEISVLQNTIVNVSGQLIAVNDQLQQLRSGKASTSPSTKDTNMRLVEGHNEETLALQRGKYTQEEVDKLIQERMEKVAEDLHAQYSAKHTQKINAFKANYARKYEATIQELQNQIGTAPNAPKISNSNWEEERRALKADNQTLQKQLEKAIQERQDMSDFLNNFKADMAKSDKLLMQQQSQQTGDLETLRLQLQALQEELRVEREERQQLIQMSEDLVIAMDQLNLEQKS

[2] = biological target: T2, Alp7 with Alp14-GFP (tip tracking Alp7-14 complexes) (S. pombe, UniProt O94534 1-809; Q9URY2 1-474, biotin on the AviTag (BirA ligase co-expressed to ensure biotinylation)); test: TIRF microscopy of Alp14-GFP on dynamic microtubules; dual-TIRF; MTs nucleated by immobilized Alexa488 labeled seeds using 6 μM S. pombe tubulin doped with 2.5% (150 nM) rhodamine labeled brain tubulin; Alp14-GFP without or with Alp7; conditions: both partners purified
T2 construct: Alp14 of S. pombe, as the chain of m9; Alp7 of S. pombe, full length, as the chain of m2; source: each from Sf9 insect cells (baculovirus), purified, added together to the assay
T2 sequence (looked up) 1: T1 sequence (looked up) 1
T2 sequence (looked up) 2: T1 sequence (looked up) 2

[3] = biological target: the molecule itself; test: DIC video microscopy of microtubule growth; addition of GTP-tubulin to plus and minus ends of MTs nucleated by axoneme fragments; growth rate against tubulin concentration, linear regression, apparent rate constants; 100 mM K-PIPES, 1 mM MgSO4, 2 mM EGTA, 1 mM DTT pH 6.9, 1 mM GTP, no glycerol, 25 °C

binding result [1]: binds
binding result [2]: binds
B1: S. pombe single isoform (α1β) tubulin (complex)
chain 1: MREVISVHVGQAGVQIGNACWELYCLEHGIGPDGFPTENSEVHKNNSYLNDGFGTFFSETGQGKFVPRSIYVDLEPNVIDQVRTGPYKDLFHPEQMVTGKEDASNNYARGHYTVGKEMIDSVLERIRRMADNCSGLQGFLVFHSFGGGTGSGLGALLLERLNMEYGKKSNLQFSVYPAPQVSTSVVEPYNSVLTTHATLDNSDCTFMVDNEACYDICRRNLDIERPTYENLNRLIAQVVSSITASLRFAGSLNVDLNEFQTNLVPYPRIHFPLVTYSPIVSAAKAFHESNSVQEITNQCFEPYNQMVKCDPRTGRYMATCLLYRGDVIPRDVQAAVTSIKSRRTIQFVDWCPTGFKIGICYEPPQHVPGSGIAKVNRAVCMLSNTTSIAEAWSRLDHKFDLMYSKRAFVHWYVGEGMEEGEFSEAREDLAALERDYEEVGQDSMDNEMYEADEEY
chain 2: MREIVHIQAGQCGNQVGAAFWSTIADEHGLDSAGIYHGTSEAQHERLNVYFNEAAGGKYVPRAVLVDLEPGTMDAVKSGKFGNLFRPDNIIYGQSGAGNIWAKGHYTEGAELADAVLDVVRREAEACDALQGFQLTHSLGGGTGSGMGTLLLSKIREEYPDRMMATFSVAPAPKSSDTVVEPYNATLSMHQLVENSDETFCIDNEALSSIFANTLKIKSPSYDDLNHLVSAVMAGVTTSFRFPGELNSDLRKLAVNMVPFPRLHFFMVGFAPLAAIGSSSFQAVSVPELTQQMFDANNMMVAADPRHGRYLTVAALFRGKVSMKEVDEQIRSVQTKNSAYFVEWIPDNVLKAVCSVPPKDLKMSATFIGNSTSIQEIFRRLGDQFSAMFRRKAFLHWYTGEGMDEMEFTEAESNMNDLVSEYQQYQEAGIDEGDEDYEIEEEKEPLEY
notes: alpha-1 tubulin of S. pombe, untagged, endogenous; beta tubulin of S. pombe, untagged, endogenous; Used as free heterodimer (GTP or GDP form) in the gradients and polymerised into dynamic microtubules in the microscopy assays; the assay's format tells which; also called single isoform S. pombe tubulin; S. pombe tubulin; source: purified from S. pombe single isoform strain (mmsp174): ion exchange, …
Kd = koff/kon (critical concentration), minus end [3]: 900 nM
Kd = koff/kon (critical concentration), plus end [3]: 1200 nM
